{"source": "patent US20240002516A1", "about": "(4B TECHNOLOGIES SUZHOU, published 2024)", "binders": {"B1": {"name": "PHD29 (antibody, V domains shown)", "VH": "QVQLVQSGAEVKKPGASVKVSCKASGYTFTTYWMHWVRQAPGQGLEWIGTIYPGNSDTSFAQKFQGRVTLTRDTSTSTAYMELSSLRSEDTAVYYCTRFYFEDWYFDVWGQGTTVTVSS", "VL": "DIQMTQSPSSLSASVGDRVTITCRASSSISWLYWFQQKPGKAPKPLIYYTSSLGSGVPSRFSGSGSGTDYTLTISSLQPEDFATYYCQQWHSYPPTFGGGTKVEIK"}, "B2": {"name": "PHD22 (antibody, V domains shown)", "VH": "B1 VH with T31E, F60Y", "VL": "B1 VL with S52T"}, "B3": {"name": "PHD24 (antibody, V domains shown)", "VH": "B1 VH with F60L", "VL": "B1 VL with S52T"}, "B4": {"name": "PHD25 (antibody, V domains shown)", "VH": "B1 VH", "VL": "B1 VL with S52T"}, "B5": {"name": "PHD26 (antibody, V domains shown)", "VH": "B1 VH with T31E, F60Y", "VL": "B1 VL"}, "B6": {"name": "PHD28 (antibody, V domains shown)", "VH": "B1 VH with F60L", "VL": "B1 VL"}, "B7": {"name": "PHD30 (antibody, V domains shown)", "VH": "B1 VH with T31E, T58S, F101Y", "VL": "B1 VL with W31Y, Y49R, W90Y"}, "B8": {"name": "PHD48-08 (antibody, IgG4, V domains shown)", "VH": "B1 VH with T58S, F60N, R72A, F101Y", "VL": "B1 VL with I29V, W31Y, Y49R, S52N, G54A, W90Y"}, "B9": {"name": "PHD49-11 (antibody, IgG4, V domains shown)", "VH": "QVQLVQSGAEVKKPGSSVKVSCKASGYTFSSYWMQWVRQAPGQGLEWIGAIYPGDDDTIYTQKFKGRATITADKSTSTAYMELSSLRSEDTAVYYCARNYDYQAWFAYWGQGTLVTVSS", "VL": "DIQMTQSPSSLSASVGDRVTITCRASSSVSYLYWYQQKPGKAPKPWIYLTSNLASGVPSRFSGSGSGTDYTLTISSLQPEDFATYYCQQWSSNPLTFGQGTKLEIK"}, "B10": {"name": "PHD48 (antibody, V domains shown)", "VH": "B1 VH with T58S, F60N, F101Y", "VL": "B1 VL with I29V, W31Y, Y49R, S52N, G54A, W90Y", "notes": "also called full-length PHD48 antibody"}, "B11": {"name": "PHD49-05 (antibody, V domains shown)", "VH": "B9 VH with Y32H, M34I, K65Q, A72T", "VL": "B9 VL with W46L, N52S"}, "B12": {"name": "PHD49 (antibody, V domains shown)", "VH": "B9 VH with Y27F, M34I, P53T, D56G, K65Q, A72T, K74E, D101H, A107D", "VL": "B9 VL with W46L, N52S"}}, "note": "Where a chain is given by its changes, count along the chain named."}
{"target": "T1, extracellular domain (ECD) of human TrkA protein, N-terminal flag tag and C-terminal His tag (PHA) (human, UniProt P04629 33-423)", "T1 construct": "Made in 293-F cells and purified by IMAC; also called TrkA ECD protein; TrkA (ECD); not shown: flag tag at the N-terminus (after the signal peptide); His tag at the C-terminus", "T1 sequence (P04629 33-423)": "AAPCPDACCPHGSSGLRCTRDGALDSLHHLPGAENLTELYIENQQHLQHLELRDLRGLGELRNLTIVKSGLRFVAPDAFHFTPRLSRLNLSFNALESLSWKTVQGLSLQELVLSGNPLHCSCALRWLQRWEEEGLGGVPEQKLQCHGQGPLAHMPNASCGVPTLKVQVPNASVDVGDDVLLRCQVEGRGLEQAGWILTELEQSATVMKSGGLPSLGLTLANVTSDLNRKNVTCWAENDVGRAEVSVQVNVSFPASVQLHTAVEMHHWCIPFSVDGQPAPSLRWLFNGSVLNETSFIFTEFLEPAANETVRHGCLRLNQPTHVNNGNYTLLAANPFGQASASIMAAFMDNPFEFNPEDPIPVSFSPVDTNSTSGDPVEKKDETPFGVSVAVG", "experiment": "BLI (ForteBio)", "units": {"Kd": "nM", "koff": "s⁻¹", "kon": "M⁻¹ s⁻¹"}}
{"binder": "B1", "Kd": 11.9, "koff": 0.00441, "kon": 371000}
{"binder": "B2", "Kd": 23.8, "koff": 0.0113, "kon": 473000}
{"binder": "B3", "Kd": 11.6, "koff": 0.00518, "kon": 446000}
{"binder": "B4", "Kd": 12.3, "koff": 0.00471, "kon": 383000}
{"binder": "B5", "Kd": 16.6, "koff": 0.00811, "kon": 490000}
{"binder": "B6", "Kd": 18.4, "koff": 0.00764, "kon": 415000}
{"binder": "B7", "Kd": 7.23, "koff": 0.00351, "kon": 486000}
{"target": "T1, extracellular domain (ECD) of human …", "experiment": "BLI (Octet Red384), as in Example 4", "description": "The bio-layer interferometry (BLI) method was used to determine the affinities of the antibodies, employing Octet Red384. Briefly, anti-human Fc-coated biosensor AHQ tips (ForteBio) were put into PBS with 0.1% w/v bovine serum albumin and 0.05% Tween-20 for a minimum of 10 min in the pre-wetting plate. The purified antibodies (100 nM in PBS with 0.1% bovine serum albumin and 0.05% Tween-20 (assay buffer)) were captured on AHQ biosensors (ForteBio) at a level of about 1 nm. The loaded biosensors were washed with an assay buffer to remove any unbound protein. Then, the association rates, dissociation rates and response were measured, using an antigen of 100 nM (in PBS with 0.1% bovine serum albumin and 0.05% Tween-20).\nTwo rounds of humanizations were further performed. […] In the second round, many other variants were further constructed (including several mutations in the CDR sequences). Quickchange based site-directed mutagenesis or overlap PCR were performed to create expression plasmid of new versions of 2nd round humanized antibodies. All recombinant antibodies were expressed and purified as described in Example 1, then measured antigen binding affinity using BLI technology with the Octet Red384 instrument as mentioned above. To compare the functional activity of humanized antibodies with chimeric antibodies, NFAT assay was also performed.", "units": {"Kd": "nM", "koff": "s⁻¹", "kon": "M⁻¹ s⁻¹"}}
{"binder": "B8", "Kd": 1.38, "koff": 0.000331, "kon": 240000}
{"binder": "B9", "Kd": 10.6, "koff": 0.00207, "kon": 196000}
{"target": "T1, extracellular domain (ECD) of human …", "experiment": "SPR (BIAcore T200), antibody on protein G chip, PHA 0.625-20 nM injected", "description": "The binding kinetics and affinities of the humanized antibodies were determined using a BIAcoreT200™ SPR system. Approximately 30 RU of the humanized antibody was immobilized on a protein G sensor chip and serial 2-fold dilutions of the PHA (0.625-20 nM) in 1×HBS-EP+ buffer were injected over the antibody-bound surface at a flow rate of 30 μl/min.", "units": {"Kd": "nM", "koff": "s⁻¹", "kon": "M⁻¹ s⁻¹"}}
{"binder": "B10", "Kd": 1.87, "koff": 0.000413, "kon": 220000}
{"binder": "B8", "Kd": 2.77, "koff": 0.00045, "kon": 163000}
{"target": "T1, extracellular domain (ECD) of human …", "experiment": "affinity after affinity maturation; method not stated in Example 5", "units": {"Kd": "nM", "koff": "s⁻¹", "kon": "M⁻¹ s⁻¹"}}
{"binder": "B11", "Kd": 0.583, "koff": 0.000174, "kon": 299000}
{"binder": "B12", "Kd": 0.174, "koff": "5.21e-05", "kon": 300000}
{"target": "human TrkA on CellSensor TrkA-NFAT-bla CHO-K1 cells (human, UniProt P04629 33-796)", "sequence (P04629 33-796 limits assumed, form in doubt)": "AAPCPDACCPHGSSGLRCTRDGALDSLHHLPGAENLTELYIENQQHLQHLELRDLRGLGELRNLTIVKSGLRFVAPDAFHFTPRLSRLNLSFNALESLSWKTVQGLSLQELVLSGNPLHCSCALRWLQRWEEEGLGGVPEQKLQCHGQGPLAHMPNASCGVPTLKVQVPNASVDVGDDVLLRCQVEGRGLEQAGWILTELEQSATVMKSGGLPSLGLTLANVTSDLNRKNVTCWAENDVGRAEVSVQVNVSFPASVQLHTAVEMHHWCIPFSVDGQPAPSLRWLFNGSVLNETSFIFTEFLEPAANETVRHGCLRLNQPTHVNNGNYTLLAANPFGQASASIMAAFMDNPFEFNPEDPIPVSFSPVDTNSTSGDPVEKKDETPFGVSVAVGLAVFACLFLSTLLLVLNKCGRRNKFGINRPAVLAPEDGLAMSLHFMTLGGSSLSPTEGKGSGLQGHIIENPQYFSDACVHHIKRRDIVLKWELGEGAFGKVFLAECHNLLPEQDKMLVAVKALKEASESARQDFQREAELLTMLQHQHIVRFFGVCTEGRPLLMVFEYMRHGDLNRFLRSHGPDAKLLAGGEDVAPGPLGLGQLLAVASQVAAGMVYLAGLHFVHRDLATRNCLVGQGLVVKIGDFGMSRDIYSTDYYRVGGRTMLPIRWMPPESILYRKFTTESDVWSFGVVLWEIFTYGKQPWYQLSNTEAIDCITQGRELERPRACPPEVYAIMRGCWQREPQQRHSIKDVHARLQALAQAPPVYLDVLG", "experiment": "cell-based or functional assay", "units": {"NFAT IC50": "nM"}}
{"binder": "B10", "NFAT IC50": 66.5}
{"binder": "B8", "NFAT IC50": 188}
{"binder": "B11", "NFAT IC50": 170}
{"binder": "B12", "NFAT IC50": 266}
{"binder": "B9", "NFAT IC50": 269}
